Reference: IntAct's records for PubMed 21816275

B1: Septum site-determining protein MinD (Escherichia coli (strain K12)), P0AEZ3 (parent)
chain: MARIIVVTSGKGGVGKTTSSAAIATGLAQKGKKTVVIDFDIGLRNLDLIMGCERRVVYDFVNVIQGDATLNQALIKDKRTENLYILPASQTRDKDALTREGVAKVLDDLKAMDFEFIVCDSPAGIETGALMALYFADEAIITTNPEVSSVRDSDRILGILASKSRRAENGEEPIKEHLLLTRYNPGRVSRGDMLSMEDVLEILRIKLVGVIPEDQSVLRASNQGEPVILDINADAGKAYADTVERLLGEERPFRFIEEEKKGFLKRLFGG

Variants of: B1
Settings: with mine_ecoli minE

Effect of a mutation on the interaction, disrupting interaction:
N222A
D192Y
D198R
M193L
G224C
